Source: US20200362021A1 (PHANES THERAPEUTICS, published 2020)
Where a chain is given by its changes, count along the chain named. No end group written: not given here. *: point of attachment. Biotin = O=C1N[C@H]2[C@H](CS[C@H]2CCCCC(=O)*)N1

T1: 9-13
T1 construct: also called apelin peptide 9-13 (GPMPF)
T1 peptide: GPMPF

T2: 10-13
T2 construct: also called apelin peptide 10-13 (PMPF)
T2 peptide: PMPF

T3: apelin peptide 1-12 (QRPRLSHKGPMP)
T3 peptide: QRPRLSHKGPMP

T4: apelin peptide 3-13 (PRLSHKGPMPF)
T4 peptide: PRLSHKGPMPF

T5: apelin peptide 4-13 (RLSHKGPMPF)
T5 peptide: RLSHKGPMPF

T6: apelin peptide 5-13 (LSHKGPMPF)
T6 peptide: LSHKGPMPF

T7: apelin peptide 6-13 (SHKGPMPF)
T7 peptide: SHKGPMPF

T8: apelin peptide 7-13 (HKGPMPF)
T8 peptide: HKGPMPF

T9: apelin peptide 8-13 (KGPMPF)
T9 peptide: KGPMPF

T10: apelin peptide 2-13 (RPRLSHKGPMPF)
T10 peptide: RPRLSHKGPMPF

T11: alanine scanning peptide 10A (KGAMPF)
T11 peptide: KGAMPF

T12: alanine scanning peptide 13A (KGPMPA)
T12 peptide: KGPMPA

T13: Biotin-APL17
T13 peptide: Biotin-KFRRQRPRLSHKGPMPF

T14: pyr-apelin-13-biotin (pE-RPRLSHKGPMPF-biotin) (N-terminal pyroglutamate (pE); C-terminal biotin)
T14 construct: also called pyrAPL13-Biotin
T14 peptide: ERPRLSHKGPMPF

B1: humanized anti-apelin mAb B24 (human IgG4 backbone) (antibody, V domains shown)
VH: QSLEESGGGLVQPGGSLRLSCTVSGIDLYTNRVSWVRQAPGKGLEWVGSIGSSPWYASWAQGRFTISRDNSNTVYLKMNSPTAEDTATYFCAKGGYRPGGSIWGQGTLVTVSS
VL: DIQLTQSPSSLSASVGDRVTITCQSSQSIYDNNDLGWYQQKPGKTPKRLIYLASSLDSGVPSRFSGSGSGTDFTLTISSLQPEDVATYYCAGGYSGDIYTFGGGTKVEIK
B2: humanized anti-apelin mAb B25 (human IgG4 backbone) (antibody, V domains shown)
VH: B1 VH with V33M, Y56F, Q61L, G100A, I102V
VL: B1 VL with G36A, S95N
B3: anti-apelin mAb C8 (antibody, V domains shown)
VH: QSVEESGGRLVTPGTPLTLTCTVSGIDLYSNRMSWVRQAPGKGLEWIGSIGSSPWYASWAQGRFTISKTSSTTVNLKITSPTTEDTATYFCAKGGYRPGASVWGPGTLVTVSS
VL: QVLTQTESPVSAPVGGTVTIACQSSQSVYDNNDLAWYQQKAGQTPKRLIYLASSLDSGVPSRFKGSGSGTEFTLTISDLECDDAATYYCAGGYSGDIYTFGGGTEVVVE
notes: recombinant rabbit IgG made in HEK293 cells
B4: anti-apelin mAb C24 (antibody, V domains shown)
VH: QSLEESGGRLVTPGTPLTLTCTVSGIDLYTNRVSWVRQAPGKGLDWIGSIGSSPWYASWAQGRFTISKTSTTVNLKITSSTTEDTATYFCAKGGYRPGGSIWGPGTLVTVSS
VL: B3 VL with T6S, E7A, P13A, G16D, T17S, A35G, A41P, K64S, E71Q, E109K
notes: as for B3
B5: anti-apelin mAb C25 (antibody, V domains shown)
VH: B4 VH with R9G, V33M, D45E, Y56F, Q61L, S80P, G99A, I101V
VL: B3 VL with Y50F, S94N, E109K
notes: as for B3
B6: anti-apelin mAb C27 (antibody, V domains shown)
VH: QSVEESGGRLVTPGGSLTLTCTVSGIDLINAWMNWVRQAPGKGLEWIGTTTDDDTIYYANWAKGRFTISRTSTTVDLKVTSLTSEDTATYFCSKGRIWGPGTLVTVSL
VL: QVLTQTPASVSAAVGGTVTINCQASQSVYDGNWLCWYQQKPGQPPKRLIYKASTLESGVPSRFKGSGSGTQFTLTISDLECDDAATYYCQGGFTSNIYPFAGGTEVVVK
notes: as for B3
B7: anti-apelin mAb C17 (antibody, V domains shown)
VH: QSVEESGGRLVKPDETLTLTCAVSGIDLSSNAMNWVRQAPGEGLEWIGSMYTDGTTYYANWAKGRFTISRASSTTVDLKMTSLTAADTATYFCARGDIWGPGTLVTVSS
VL: QVLTQTASPVSAAVGGTVTISCQSSQSVYNNNWLAWFQQKPGQPPKRLIYGTSELASGVPSRFKGSGSGTQFTLTISGVQCDDAATYYCLGTYSSNIHVFGGGTEVVVK
notes: as for B3
B8: anti-apelin mAb C5 (antibody, V domains shown)
VH: QSVEESGGRLVTPGTPLTLTCTVSGFSLSGAWMNWVRQAPGKGLEWIGVVSSDDNIYYADWAKGRFTISKTSTTVDLKLTSPTTEDTATYFCARNLGTIWGPGTLVTVSS
VL: QVLTQTESPVSAAVGGTVTINCQSSQSVWSNYLSWFQQKPGQPPKVLIYGTSKLPSGVPSRFSGSGSGTEFTLTINDLECDDAATYYCAGGYSGHIYSFGGGTEVVVK
notes: as for B3
B9: anti-apelin mAb C26 (antibody, V domains shown)
VH: QEQLEESGGGLVQPEGSLTLTCTASGFTLSNYWMSWVRQAPGKGLVWIGCIDIGSDDTYYASWAKGRFTISRTSSTTVTLQVTSLTAADTATYFCARSGGLWGPGTLVTVSS
VL: QVLTQTPSSTSAAVGGTVTINCQASQSVYNNNDLAWYQQKPGQPPKRLIYEASKLASGVPSRFSGSGSGTQFTLTISDLECDDAATYYCAGGWSGNFYVFGGGTEVVVK
notes: as for B3
B10: humanized anti-apelin mAb A31 (human IgG4 backbone) (antibody, V domains shown)
VH: B1 VH with T22A, T30S, V33M, K77Q, P81L, G100A, I102V
VL: B1 VL with G36A

Key:
[1] = target: T15, biotin-apelin-13 (biotin-…) (N-terminal biotin); assay: ELISA, increasing concentrations of IgG4 mAb immobilized on plate, biotin-apelin-13 added, streptavidin-AP detection
T15 construct: also called Biotin-APL13
Source text: Two additional humanized mAbs (B24 and B25) were generated with sequence modifications on A31. […] The binding was then detected by adding PNPP substrate and reading absorbance of the ELISA plates at 405 nm.

[2] = target: T15, biotin-apelin-13 (biotin-…); assay: SPR (Biacore), biotin-apelin-13 on streptavidin CM5 chip, mAb at 12.5-100 nM
Procedure: Anti-apelin mAbs at four different concentrations (12.5 nM, 25 nM, 50 nM and 100 nM) were captured on the chip surface. The on- and off-rate for antibody-antigen binding were measured, curve fitted and calculated.

[3] = target: T1, 9-13; assay: competition ELISA, captured mAb, peptide competes with biotin-apelin-13, A405
Procedure: (§1) Goat-anti-rabbit IgG was immobilized on an ELISA plate.
(§2) The antibody binding sites for anti-apelin mAbs C8, C24, and C25 were mapped using an ELISA-based peptide competition assay. […] Each of the competition peptides (Table 7) was assessed for its ability to inhibit biotin-apelin-13 binding to the mAb. An inhibition signal reflects the ability of the competition peptide to bind to the mAb in solution.
(§3) For the peptide competition assay, goat anti-rabbit IgG in carbonate coating buffer was coated on high binding ELISA plates at 1 μg/ml overnight. […] After incubation at room temperature for 60 minutes, the plates were washed and then streptavidin-conjugated to alkaline phosphatase was added, and the binding was detected by adding PNPP substrate and reading absorbance of ELISA plates at 405 nm. Each competition peptide or control sample was assayed in duplicate for a given mAb. […] “No comp:” no competition peptide was added; “No Ab, No Comp:” neither competition peptide nor anti-apelin mAb was added.

[4] = target: T2, 10-13; assay: as above
Procedure: as §1, §2, §3

[5] = target: T3, apelin peptide 1-12 (QRPRLSHKGPMP); assay: as above
Procedure: as §1, §2, §3

[6] = target: T4, apelin peptide 3-13 (PRLSHKGPMPF); assay: as above
Procedure: as §1, §2, §3

[7] = target: T5, apelin peptide 4-13 (RLSHKGPMPF); assay: as above
Procedure: as §1, §2, §3

[8] = target: T6, apelin peptide 5-13 (LSHKGPMPF); assay: as above
Procedure: as §1, §2, §3

[9] = target: T7, apelin peptide 6-13 (SHKGPMPF); assay: as above
Procedure: as §1, §2, §3

[10] = target: T8, apelin peptide 7-13 (HKGPMPF); assay: as above
Procedure: as §1, §2, §3

[11] = target: T9, apelin peptide 8-13 (KGPMPF); assay: as above
Procedure: as §1, §2, §3

[12] = target: T10, apelin peptide 2-13 (RPRLSHKGPMPF); assay: as above
Procedure: (§4) Goat anti-rabbit IgG was immobilized on an ELISA plate. […] Several competition peptides were used as controls.
as §3

[13] = target: alanine scanning peptide 8A (AGPMPF); assay: as above
Procedure: as §4, §3

[14] = target: alanine scanning peptide 9A (KAPMPF); assay: as above
Procedure: as §4, §3

[15] = target: T11, alanine scanning peptide 10A (KGAMPF); assay: as above
Procedure: as §4, §3

[16] = target: T12, alanine scanning peptide 13A (KGPMPA); assay: as above
Procedure: as §4, §3

[17] = target: T13, Biotin-APL17; assay: ELISA, peptide on neutravidin plate, mAb 200 ng/ml, A405
Procedure: (§5) FIGS. 1A-1C show binding of anti-apelin mAbs to various biotinylated apelin peptides measured by ELISA. Biotinylated apelin peptides were immobilized on ELISA plates coated with neutravidin and purified recombinant rabbit anti-apelin mAbs were added for binding to the peptides on the plates. The binding was detected by adding a goat anti-rabbit IgG Fc-conjugated to alkaline phosphatase and PNPP substrate, and measured as the absorbance at 405 nm.
(§6) For the binding assay, neutravidin in carbonate coating buffer was coated on high binding ELISA plates at 1 μg/ml overnight. Peptides were added at 4 μg/ml after the plates were blocked with 1% BSA in TBS. After incubation of the plates at room temperature for 60 minutes, the plates were washed and then purified recombinant rabbit antibodies were added at 200 ng/ml. Following rabbit antibody binding to the peptides on the plates at room temperature for 90 minutes, goat anti-rabbit IgG Fc-conjugated to alkaline phosphatase was added, and antibody-antigen binding was detected by adding PNPP substrate and reading absorbance of ELISA plates at 405 nm. Each mAb was assayed in duplicate.

[18] = target: T14, pyr-apelin-13-biotin …; assay: as above
Procedure: as §5, §6

Row | Binder | EC50 [1] | Kd [2] | binding result [3] | binding result [4] | binding result [5] | binding result [6] | binding result [7] | binding result [8] | binding result [9] | binding result [10] | binding result [11] | binding result [12] | binding result [13] | binding result [14] | binding result [15] | binding result [18] | other results
1 | B1 | 0.79 nM | – | – | – | – | – | – | – | – | – | – | – | – | – | – | – | –
2 | B2 | 0.47 nM | – | – | – | – | – | – | – | – | – | – | – | – | – | – | – | –
3 | B3 | – | 0.0174 nM | binds | binds | no binding (tested: peptide concentration not stated) | binds | binds | binds | binds | binds | binds | binds | binds | binds | binds | – | –
4 | B4 | – | 0.000401 nM | binds | binds | no binding (tested: peptide concentration not stated) | binds | binds | binds | binds | binds | binds | binds | binds | binds | binds | – | binding result [16]: no binding (tested: peptide concentration not stated)
5 | B5 | – | 0.0508 nM | binds | binds | no binding (tested: peptide concentration not stated) | binds | binds | binds | binds | binds | binds | binds | binds | binds | binds | – | binding result [16]: no binding (tested: peptide concentration not stated)
6 | B6 | – | 0.589 nM | – | – | – | – | – | – | – | – | – | – | – | – | – | no binding (tested: 200 ng/ml) | binding result [17]: binds
7 | B7 | – | 1.06 nM | – | – | – | – | – | – | – | – | – | – | – | – | – | no binding (tested: 200 ng/ml) | –
8 | B8 | – | 51.3 nM | – | – | – | – | – | – | – | – | – | – | – | – | – | no binding (tested: 200 ng/ml) | –
9 | B9 | – | 0.119 nM | – | – | – | – | – | – | – | – | – | – | – | – | – | no binding (tested: 200 ng/ml) | –
10 | B10 | 0.21 nM | – | – | – | – | – | – | – | – | – | – | – | – | – | – | – | –
